# Reference: US10246503B2, “Method of improving the pharmacokinetic profile of a therapeutic polypeptide and the use thereof” (BEIJING ANXINHUAIDE BIOTECH. CO., LTD, priority 2012, dated 2019)
# Where two headings read alike, the source gives them in different places.
# Assays:
# [1] = in monkeys, literature [6]; cited from earlier work
# [2] = molecular target: TNF-alpha; test: cell-based or functional assay
# [3] = analytical gel filtration (Superdex200), apparent molecular weight; assay type: physicochemical
# Excerpt: In the fusion protein of GLP-1(A8G/G22E)-Fn8-COL18NC1 described in example 4, the flexible unstructured linker between Fn8 and COL18NC1 contains six residues (GGGSGG; SEQ ID NO:89). To generate the flexible un-structured linkers with different lengths, we have synthesized the genes GLP-1(A8G/G22E/R36S)-Fn8-COL18NC1-20, GLP-1(A8G/G22E/R36S)-Fn8-COL18NC1-30, GLP-1(A8G/G22E/R36S)-Fn8-COL18NC1-54 and GLP-1(A8G/G22E/R36S)-Fn8-COL18NC1-60. In these genes, the length of the flexible unstructured polypeptide linker between Fn8 and COL18NC1 contained 20, 30, 54 and 60 residues, respectively. The protein sequences of GLP-1(A8G/G22E/R36S)-Fn8-COL18NC1-20, GLP-1(A8G/G22E/R36S)-Fn8-COL18NC1-30, GLP-1(A8G/G22E/R36S)-Fn8-COL18NC1-54 and GLP-1(A8G/G22E/R36S)-Fn8-COL18NC1-60 are listed as SEQ ID NO:8-11. The synthetic genes of GLP-1(A8G/G22E/R36S)-Fn8-COL18NC1-20, GLP-1(A8G/G22E/R36S)-Fn8-COL18NC1-30, GLP-1(A8G/G22E/R36S)-Fn8-COL18NC1-54 and GLP-1(A8G/G22E/R36S)-Fn8-COL18NC1-60 were grafted to the pET29b by NdeI and XhoI for protein expressions. The expression and purification of these fusion proteins were carried out using similar protocols described in example 3. To estimate the hydrodynamic radius and/or the Rg of the fusion proteins, the purified proteins were loaded on an analytical gel filtration column Superdex200 (GE Healthcare).
# Moreover, the flexible unstructured linker between the therapeutic polypeptide and the scaffold protein may adjust the hydrodynamic radius and/or the Rg of the fusion molecule in a tunable manner.
# The apparent molecular weights of the fusion proteins were estimated by use of an analytical gel filtration column Superdex-200 (GE Healthcare) mounted on the AKTA FPLC system (GE Healthcare). The purified fusion proteins GLP-1-Fn8, GLP-1-Fn8-COL18NC1, GLP-1(A8G/G22E/R36G)-Fn8-p246-COL18NC1 were loaded on the Superdex200 column. GLP-1-Fn8 is a fusion protein of GLP-1 and Fn8 and contains the first 144 amino acid residues of the fusion protein GLP-1-Fn8-COL18NC1 (SEQ ID NO:2). […] The genuine molecular weights for the fusion proteins GLP-1-Fn8 monomer, GLP-1-Fn8-COL18NC1 trimer, and GLP-1(A8G/G22E/R36G)-Fn8-p246-COL18NC1 trimer were ˜15 Kd, 65 Kd and 123Kd, respectively.
# [4] = pharmacokinetics in SD rats, sandwich ELISA (Example 15); assay type: in vivo, SD (Sprague-Dawley) rats; details: SD rats, intraperitoneal, 5 nmol/kg
# Experimental: To evaluate the pharmacokinetics profiles for the GLP-1 containing fusion proteins generated using the method of the invention, we purified the recombinant fusion proteins of GLP-1-Fn8-COL18NC1, GLP1(A8G/G22E/R36G)-Fn8-p246-COL18NC1 and GLP1(A8G/G22E/R36G)-Fn8-p285-COL18NC1 in PBS buffer, pH 7.2. These fusion proteins were administered into SD (Sprague-Dawley) rats by intraperitoneal injections at the dose of 5 nmol/kg for animals, respectively. Blood samples were taken at various time points after injections such as 0-min, 30-min, 1-hour, 2-hour, 4-hour, 6-hour, 8-hour, 24-hour, 48-hour, 3-day, 4-day, 5-day, 6-day and 7-day. The serum samples were centrifuged and kept at −80° C. freezer.
# The GLP-1 concentrations within the samples were examined by use of the sandwich ELISA method. The rabbit polyclonal antibody against human Fibronectin at the concentration of 3 ug/ml (Ab299, Abcam company) was coated on ELISA plate for 1 hour at room temperature. Then the plate was washed by PBST buffer three times and the wells were blocked by PBS with 10% FBS for 1 hour at room temperature. The plate was washed three times before the serum samples containing GLP-1 fusion proteins were added. The serum samples could be diluted to 20-10000 folds before use. The ELISA plate was incubated with the serum samples at room temperature for 1 hour and then washed by PBST buffer five times. Then mouse monoclonal against human GLP-1 peptide antibody (sc57510, Santa Cruz Biotechnology) at the concentration of 1 ug/ml in PBST buffer was added to the wells. The plate was washed extensively after incubation of 1 hour at room temperature. The secondary antibody, […] HRP conjugated antibody (Beijing ZSGB-Bio company, ZB 5301), was added into the wells and the color was developed using TMB (3,3′,5,5′-tetramethylbenzidine, BD Biosciences, Cat 555214). The plate reader (Bio-Rad microplate reader Model 680) was utilized to obtain the OD450 readings. This method has been calibrated using purified proteins first.
# The pharmacokinetics parameters were obtained by using the WinNonlin software (Table 5).
molecule,measurement,setting,value
GLP-1-Fc fusion protein: GLP-1-Fc fusion protein of literature reference [6] (LY2189265),half life,[1],~51 h
TNFR2-Fc fusion protein (R&D Systems),"ED50, block of the apoptosis of L-929 mouse fibroblast cells induced by TNF-alpha (0.25 ng/mL) in the presence of actinomycin D",[2],5 ng/mL
"GLP-1-Fn8-COL18NC1: fusion of GLP-1, Fn8 and COL18NC1; SEQ ID NO: 2; abbreviated NC1 in Table 5 (protein) HAEGTFTSDVSSYLEGQAAKEFIAWLVKGRGGGGSGGGGSAVPPPTDLRFTNIGPDTMRVTWAPPPSIDLTNFLVRYSPVKNEEDVAELSISPSDNAVVLTNLLPGTEYVVSVSSVYEQHESTPLRGRQKTGGGGSGGGASSGVRLWATRQAMLGQVHEVPEGWLIFVAEQEELYVRVQNGFRKVQLEARTPLPRG",apparent molecular weight,[3],~100 Kd
same,half life,[4],5.3 h
